Reference: patent US11702469B2, “Recombinant EGFL7, EGFL7 antibodies, and uses thereof” (Ohio State Innovation Foundation, priority 2017, dated 2023)

Key:
[1] = tested on: wild type (C57Bl/6J) mice; test: Toxicity on normal hematopoiesis in wild type mice; format: in vivo; details: 50 mpk twice a week for two weeks
Description: FIG. 20A-20B. WT mice were treated with 50 mpk twice weekly of Parsatuzumab (@EGFL7) or IgG1 control. FIG. 20A. CBCs from mice harvested after treatment. FIG. 20B. Percent engraftment of treated BM (CD45.2+) transplanted into BoyJ recipient mice (CD45.1).
To assess the toxicity of Parsatuzumab on normal hematopoiesis, wild type (C57Bl/6J) mice were treated with Parsatuzumab (n=4) and IgG1 control (n=4) with the highest dose previously tested at 50 mpk twice a week for two weeks. Parsatuzumab targets both human and mouse EGFL7 protein. After two weeks of treatment, blood, spleen and BM were harvested and full phenotypic characterization was performed to assess toxicity. […] Full immunophenotypic examination of BM populations was also performed (data not shown due to space constraints). […] To functionally test the effect of Parsatuzumab on normal HSPCs, competitive repopulation BM transplantation (BMT) assays and CFU assays were performed. For competitive BMT, 2×10^6 WBM was harvested from Parsatuzumab and IgG1 treated mice (CD45.2) with 2×10^6 BoyJ (CD45.1) WBM and transplanted into lethally irradiated BoyJ recipients.

NICD = NICD immunoblot in primary AML blasts; format: cell-based, human; details: 100 μg/ml, 2 hrs, n=3, vs IgG
Description: FIG. 23A-23E. EGFL7 suppresses NOTCH signaling in human AML patient blasts. (FIG. 23A) Primary blasts from AML patients (n=3) were cultured in SFEM medium with 2% BSA in the presence or absence (Unstim) of 0.25 μM rEGFL7 for 4 h. Total proteins were extracted for immunoblotting of NICD (cleaved NOTCH1) with GAPDH as loading control. (FIG. 23B) Total RNA was extracted for quantitative real time (qRT-PCR) analysis of HES1 mRNA with β-ACTIN as internal control. *p<0.05 vs un-stimulated control (Unstim). (FIG. 23C) qRT-PCR for NOTCH2 mRNA at 4 h and 24 h after stimulation of primary AML blasts with 0.25 uM rEGFL7 or unstim controls. (FIG. 23D) Primary blasts from AML patients (n=3) were cultured in SFEM medium in the absence or presence of 100 μg/ml of normal IgG or anti-human EGFL7 antibody for 2 h. Total protein was extracted for immunoblotting of NICD with GAPDH as loading control. […] Total RNA was extracted for quantitative real time RT-PCR analysis of HES1 mRNA with β-ACTIN as internal control. *p<0.05, ***p<0.001 vs IgG.
Cells were lysed in 100 μl of Pierce RIPA buffer (Cat. #8990, Thermo Scientific) supplemented with protease and phosphatase inhibitors (Roche) on ice for 20 min. […] Immunoreactive bands were detected using ECL Select Western Blotting Detection Reagent (GE Healthcare). […]

[2] = tested on: CD34+ primary AML patient cells; test: Cell-trace violet (CTV) membrane-labeling retention, quiescence; format: cell-based, human; details: vs unstimulated / IgG1 controls
Text: FIG. 17A-17C. EGFL7 in LSCs. FIG. 17A. qRT-PCR of EGFL7 in LSC-enriched and non-LSC enriched subpopulations of primary AML patient samples normalized to B-ACTIN. Number of quiescent (CTV^MAX) AML cells treated with FIG. 17B. rEGFL7 or control (vs Unstim). FIG. 17C. anti-EGFL7 (Parsatuzumab) antibody or IgG1 control (vs Unstim). *P<0.05.
A morphologically homogenous and functionally static blast population present in the BM and blood of individual AML patients has now evolved into the current perspective of multiple dynamic and heterogeneous cell subpopulations which includes the bulk blast population and the relatively rare leukemia initiating cells (LICs) also referred to as LSCs. Thus, targeting both LSCs and bulk blasts is necessary for complete eradication of the disease. To determine whether EGFL7 has a role in LCS, the LSC-enriched population was first determined within each AML patient sample using long-term colony initiating cell (LTC-IC) assays. […] Next, to determine whether EGFL7 has a role in LSC function, CD34+ cells were isolated and stimulated them with rEGFL7 protein and performed LTC-IC assays. […] To determine whether EGFL7 regulates LSC functions such as cellular quiescence, membrane-labeling retention experiments were performed with cell-trace violet dye (CTV). […]

B1: Parsatuzumab: Anti-human EGFL7 therapeutic antibody (Parsatuzumab) obtained from Creative Biolabs; blocking monoclonal antibody (antibody, chains of the INN, looked up, V domains shown)
VH: EVQLVESGGGLVQPGGSLRLSCAASGYTFIDYYMNWVRQAPGKGLEWVGDINLDNSGTHYNQKFKGRFTISRDKSKNTAYLQMNSLRAEDTAVYYCAREGVYHDYDDYAMDYWGQGTLVTVSS
VL: DIQMTQSPSSLSASVGDRVTITCRTSQSLVHINAITYLHWYQQKPGKAPKLLIYRVSNRFSGVPSRFSGSGSGTDFTLTISSLQPEDFATYYCGQSTHVPLTFGQGTKVEIK
**Q.** B1 was tested. Which “number of CFUs and types of colonies from treated BM” value ([1]; vs IgG1) did it give?
**A.** no significant changes in the number of CFUs or types of colonies formed

**Q.** What about the “full differential complete blood counts (CBCs)” value ([1]; vs IgG1 control) of the same molecule?
**A.** No significant changes

**Q.** What about the “immunophenotypic examination of BM populations” value ([1]; vs IgG1 control) of the same molecule?
**A.** no significant changes in any hematopoietic stem and/or progenitor populations

**Q.** And the NICD levels (NICD)?
**A.** significant increases in NICD levels

**Q.** What about the “number of quiescent cells (CTV^MAX)” value [2] of the same molecule?
**A.** decrease in the number of quiescent AML cells
